Laboratory results: patent publication US20210380653A1

Molecular target: DR5 receptor (TRAIL-R2, TNFRSF10B) (human) (UniProt O14763)
Assay: cell-based or functional assay

DR5 receptor (TRAIL-R2, TNFRSF10B) (human), sequence (O14763 56-440): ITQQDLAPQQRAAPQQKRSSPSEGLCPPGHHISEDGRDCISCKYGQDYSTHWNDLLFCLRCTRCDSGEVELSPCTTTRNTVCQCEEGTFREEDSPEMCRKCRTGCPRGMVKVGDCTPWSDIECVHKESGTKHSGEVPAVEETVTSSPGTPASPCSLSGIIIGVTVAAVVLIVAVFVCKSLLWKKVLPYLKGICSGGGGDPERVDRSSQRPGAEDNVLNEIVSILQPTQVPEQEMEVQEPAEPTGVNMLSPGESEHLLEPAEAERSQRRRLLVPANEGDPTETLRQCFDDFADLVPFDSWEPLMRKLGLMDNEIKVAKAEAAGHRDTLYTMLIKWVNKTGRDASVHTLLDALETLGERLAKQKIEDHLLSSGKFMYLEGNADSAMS

For “TLY012 (PEGylated miLZ-TRAIL; PEGylated form of recombinant human TRAIL fused to a modified isoleucine zipper at the N-terminus) (ligand)”, the IC50, nM (cell viability / cytotoxicity, COLO-205 cells, CellTiter-Glo) was 0.0155 nM.
